In publication PMC11194109, “Structural basis for double-stranded RNA recognition by SID1” (Nucleic Acids Research, 2024):

Target: the molecule itself
Test: cryo-EM structure; purified cSID1 in 25 mM HEPES pH 7.4, 150 mM NaCl, 0.01% GDN; apo and mixed with 100 uM 50-bp dsRNA; C2 symmetry imposed (the dsRNA complex also refined in C1)

B1: Caenorhabditis elegans systemic RNAi-defective protein 1 (SID1) (natural protein, UniProt Q9GZC8 18-776, looked up)
chain: QNNSTTPSPIITSSNSSVLVFEISSKMKMIEKKLEANTVHVLRLELDQSFILDLTKVAAEIVDSSKYSKEDGVILEVTVSNGRDSFLLKLPTVYPNLKLYTDGKLLNPLVEQDFGAHRKRHRIGDPHFHQNLIVTVQSRLNADIDYRLHVTHLDRAQYDFLKFKTGQTTKTLSNQKLTFVKPIGFFLNCSEQNISQFHVTLYSEDDICANLITVPANESIYDRSVISDKTHNRRVLSFTKRADIFFTETEISMFKSFRIFVFIAPDDSGCSTNTSRKSFNEKKKISFEFKKLENQSYAVPTALMMIFLTTPCLLFLPIVINIIKNSRKLAPSQSNLISFSPVPSEQRDMDLSHDEQQNTSSELENNGEIPAAENQIVEEITAENQETSVEEGNREIQVKIPLKQDSLSLHGQMLQYPVAIILPVLMHTAIEFHKWTTSTMANRDEMCFHNHACARPLGELRAWNNIITNIGYTLYGAIFIVLSICRRGRHEYSHVFGTYECTLLDVTIGVFMVLQSIASATYHICPSDVAFQFDTPCIQVICGLLMVRQWFVRHESPSPAYTNILLVGVVSLNFLISAFSKTSYVRFIIAVIHVIVVGSICLAKERSLGSEKLKTRFFIMAFSMGNFAAIVMYLTLSAFHLNQIATYCFIINCIMYLMYYGCMKVLHSERITSKAKLCGALSLLAWAVAGFFFFQDDTDWTRSAAASRALNKPCLLLGFFGSHDLWHIFGALAGLFTFIFVSFVDDDLINTRKTSINIF
modifications: N-linked glycans (three glycosylation sites observed in BRD2)
notes: signal peptide in the construct; full-length cDNA in pCAG; His6 and FLAG tags were inserted after the signal peptide; also called cSID1; apo-cSID1; source: HEK293F, transiently transfected (pCAG), purified (anti-FLAG M2, Ni-NTA, SEC in GDN)
- stoichiometry N: 2
